Holding throughout (assay): ELISA, antigen-coated plate
Background: ELISA stands for enzyme-linked immunosorbent assay.

In test [1] the target is T1, nAra h 2 (peanut, UniProt Q6PSU2 22-172).
T1 construct: Bought natural allergen; also called naturally extracted Ara h 2
T1 sequence (looked up): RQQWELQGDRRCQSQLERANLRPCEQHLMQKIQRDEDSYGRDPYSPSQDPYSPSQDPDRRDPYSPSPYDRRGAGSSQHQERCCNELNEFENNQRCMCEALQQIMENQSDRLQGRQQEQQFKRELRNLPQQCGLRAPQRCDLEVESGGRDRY
How it is done: (§1) EC50 binding of exemplary anti-peanut antibodies of the present invention to peanut allergens or peanut extract, was determined by ELISA. Serial dilutions of MAbs (from 1000 ng/ml down to 0.0169 ng/ml) were incubated for 2 hours with antigen-coated plates (coating overnight at 4° C. or 1 h at 37° C. with 1 μg/ml antigen in PBS, followed by wash out and blocking with 2% BSA in PBS). The plates were subsequently washed and binding of MAbs was detected with anti-human HRP-conjugated Fc-gamma-specific secondary antibody (Jackson ImmunoResearch, West Grove, Pa., USA). Concentrations of MAb resulting in half of maximal binding to respective antigens (EC50, ng/ml) were calculated using GraphPad Prism 5 software on sigmoidal dose-response curves (variable slope, 4 parameters) obtained by plotting the log of the concentration versus OD450 nm measurements; for the results see FIG. 3 and table 2.

In test [2] the target is T2, nAra h 1 (peanut, UniProt P43238 85-626).
T2 construct: Bought natural allergen; also called naturally extracted Ara h 1
T2 sequence (looked up): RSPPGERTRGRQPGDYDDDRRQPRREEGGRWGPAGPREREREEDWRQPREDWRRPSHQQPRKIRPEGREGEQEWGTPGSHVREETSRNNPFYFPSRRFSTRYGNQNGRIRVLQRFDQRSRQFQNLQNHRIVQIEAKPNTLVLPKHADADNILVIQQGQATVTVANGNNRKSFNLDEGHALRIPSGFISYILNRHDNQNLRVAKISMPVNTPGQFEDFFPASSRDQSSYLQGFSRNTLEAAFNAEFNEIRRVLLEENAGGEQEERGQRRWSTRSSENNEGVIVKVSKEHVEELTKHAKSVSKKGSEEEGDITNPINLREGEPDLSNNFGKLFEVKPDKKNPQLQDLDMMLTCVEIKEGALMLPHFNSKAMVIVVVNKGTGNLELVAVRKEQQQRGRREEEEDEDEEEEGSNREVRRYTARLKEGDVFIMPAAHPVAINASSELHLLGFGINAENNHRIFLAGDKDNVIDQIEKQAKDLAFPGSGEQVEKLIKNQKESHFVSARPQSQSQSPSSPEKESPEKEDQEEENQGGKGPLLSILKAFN
The procedure:
as §1

The target in test [3] is T3, nAra h 3 (peanut).
T3 construct: Bought natural allergen; also called naturally extracted Ara h 3
How it is done: as §1

Test [4] deals with T4, nAra h 6 (peanut, UniProt Q647G9 22-145).
T4 construct: Bought natural allergen; also called naturally extracted Ara h 6
T4 sequence (looked up): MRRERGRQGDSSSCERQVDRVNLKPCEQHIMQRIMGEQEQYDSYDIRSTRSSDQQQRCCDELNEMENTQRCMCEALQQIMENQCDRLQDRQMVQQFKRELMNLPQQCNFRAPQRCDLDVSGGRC
The procedure: as §1

B1: hm12G10 (antibody, V domains shown)
VH: EVQLLESGGRLLRPGGSLSLSCVASGFYFGDFGMSWVRQVPGKGLEWVSGIDWSGRSTGYVDSMKGRLTISRDNDKSSLYLQMNDLRGEDTAVYYCARVGRLCSGDSCDSMGAFDLWGQGTMVTVSS
VL: DIQLTQSPSTLSASIGDSVTITCRASQNIDNWLAWYQQKPGKAPRLLIYKASSLGSGVSSKFRGSGFGTEFTLTITSLQPDDFATYYCQKSNGYSRTFGQGTKVDIK
notes: also called 12G10 with mouse Fc; hmMAb 12G10
Broadly, the EC50 is the concentration that produces a half-maximal response. Low readings indicate higher potency in that assay, high ones lower potency in that assay. With B1, the EC50 in test [1] was found to be 0.0067 µg/mL; in test [2], 0.195 µg/mL; in test [3], 0.0368 µg/mL; in test [4], 0.0278 µg/mL.

B2: hm37D5 (antibody, V domains shown)
VH: EEQLVESGGRLLRPGESLSLSCAAVGFNFGDFGMAWVRQPPGKGLEWVAGINWSGHSTGFVDSMKGRLTISRDSAKSSLFLQMNSLRGEDTAVYYCARVGRLCSGDICDSMGAFDLWGQGTMVTVSS
VL: DIQMTQSPSTLSASIGDRVTITCRASQTIDNWLAWYQQRPGKAPKLLIYQASSLQSGVSSRFRGSGSGTEFTLTITSLQPDDFATYYCQKSNGYSRTFGQGTKVEIK
notes: also called 37D5 with mouse Fc; hmMAb 37D5
For the molecule B2, the half-maximal effective concentration (EC50) in test [1] came to 0.0052 µg/mL; in test [2], 0.115 µg/mL; in test [3], 0.0723 µg/mL; in test [4], 0.034 µg/mL.

B3: hm32B10 (antibody, V domains shown)
VH: QVQLVQSGAEVKKPGASVKVSCRASGYIFRNFDINWVRQATGQGLEWMGWMSPKSGDTGYAQKFQGRVTMTRDTSINTAYMELSSLTSEDSAVYYCARGVDGTNWGQGTRVTVSS
VL: DIVMTQSPDSLGVSLGERATISCKSSQSILDNSNNKNFIAWFQQKPGQPPKLLIYWASARESGVPDRFSGSGSGTEFTLTINSLQAEDVAVYYCYQYYSTPHTFGQGTKLDLR
notes: also called 32B10 with mouse Fc; hmMAb 32B10
B3 gave an EC50 in test [1] of 0.0099 µg/mL.

B4: hm4B2 (antibody, V domains shown)
VH: QVQLQEAGPRLVKPSQTLSVTCTVSGASITIGGYYWSWIRQHPGKGLEWMGYIYSNGRTYYNPSLKSRIAMSIDTSKNQFSLKLTSVTAADTAIYFCAREAWETPLWGQGTLITVSS
VL: DIQMTQSPSSLSASVGDRVTITCQANQDIVNSLNWFQHKPGTAPKVLIYDASKLETGVPSRFSGSGSGTHFTFTISGLQPEDFATYFCQQYENLPHTFGQGTKLEIR
notes: also called 4B2 with mouse Fc; hmMAb 4B2
In turn, B4 registered an EC50 in test [1] of 0.0102 µg/mL.

B5: hm2F8 (antibody, V domains shown)
VH: EVQLVESGGGLVKPGGSLRLSCAASGFIFSDYNMNWVRQAPGKGLEWVSSITRSSRTIYYADSVKGRFTISRDNAKNSLHLQMNSLRDADTAVYYCAREDFDVSTGPYYMDVWGNGTTVIVSS
VL: EIVLTQSPGTLSLSPGERATLSCRASQSVSNMFLVWYQQKPGQAPRLLMYGASTRATDIPDRFSGSGSGTDFTLTISRLEPEDFAVYYCQQNGNSPYTFGQGTKLEIK
notes: also called 2F8 with mouse Fc; hmMAb 2F8
In test [1], B5 had an EC50 of 0.0087 µg/mL.
